Data on 42 molecules can be found in publication PMC9658990.

The chains are these.
B1: Ex-S37 (ssDNA)
DNA: CAAGCGGGGGTGAGAGATCTGTCAGTACGAGCTGGGCTTGCG
B2: Ex-S2 (ssDNA)
DNA: B1 DNA with A2C, C37T
B3: Ex-S12 (ssDNA)
DNA: B1 DNA with G12T, C37T
B4: Ex-S1 (ssDNA)
DNA: B1 DNA with C1T, C37T
B5: Ex-S35 (ssDNA)
DNA: B1 DNA with G35T, C37T
B6: Ex-S41 (ssDNA)
DNA: B1 DNA with C37T, C41T
B7: Ex-S42 (ssDNA)
DNA: B1 DNA with C37T, G42T
B8: Ex-S30 (ssDNA)
DNA: B1 DNA with A30C, C37T
B9: Ex-S40 (ssDNA)
DNA: B1 DNA with C37T, G40T
B10: Ex-S17 (ssDNA)
DNA: B1 DNA with A17C, C37T
B11: Ex-S29 (ssDNA)
DNA: B1 DNA with G29T, C37T
B12: Ex-S24 (ssDNA)
DNA: B1 DNA with A24C, C37T
B13: Ex-S19 (ssDNA)
DNA: B1 DNA with C19T, C37T
B14: Ex-S23 (ssDNA)
DNA: B1 DNA with C23T, C37T
B15: Ex-S26 (ssDNA)
DNA: B1 DNA with T26C, C37T
B16: Ex-S13 (ssDNA)
DNA: B1 DNA with A13C, C37T
B17: Ex-S22 (ssDNA)
DNA: B1 DNA with T22C, C37T
B18: Ex-S7 (ssDNA)
DNA: B1 DNA with G7T, C37T
B19: Ex-S11 (ssDNA)
DNA: B1 DNA with T11C, C37T
B20: Ex-S34 (ssDNA)
DNA: B1 DNA with G34T, C37T
B21: Ex-S4 (ssDNA)
DNA: B1 DNA with G4T, C37T
B22: Ex-S10 (ssDNA)
DNA: B1 DNA with G10T, C37T
B23: Ex-S14 (ssDNA)
DNA: B1 DNA with G14T, C37T
B24: Ex-S39 (ssDNA)
DNA: B1 DNA with C37T, T39C
B25: Ex-S25 (ssDNA)
DNA: B1 DNA with G25T, C37T
B26: Ex-S27 (ssDNA)
DNA: B1 DNA with A27C, C37T
B27: Ex-S9 (ssDNA)
DNA: B1 DNA with G9T, C37T
B28: Ex-S31 (ssDNA)
DNA: B1 DNA with G31T, C37T
B29: Ex-S36 (ssDNA)
DNA: B1 DNA with G36T, C37T
B30: Ex-S5 (ssDNA)
DNA: B1 DNA with C5T, C37T
B31: Ex-S28 (ssDNA)
DNA: B1 DNA with C28T, C37T
B32: Ex-S32 (ssDNA)
DNA: B1 DNA with C32T, C37T
B33: Ex-S8 (ssDNA)
DNA: B1 DNA with G8T, C37T
B34: Ex-S15 (ssDNA)
DNA: B1 DNA with A15C, C37T
B35: Ex-S38 (ssDNA)
DNA: B1 DNA with C37T, T38C
B36: Ex-S18 (ssDNA)
DNA: B1 DNA with T18C, C37T
B37: Ex-S21 (ssDNA)
DNA: B1 DNA with G21T, C37T
B38: Ex-S3 (ssDNA)
DNA: B1 DNA with A3C, C37T
B39: Ex-S6 (ssDNA)
DNA: B1 DNA with G6T, C37T
B40: Ex-S20 (ssDNA)
DNA: B1 DNA with T20C, C37T
B41: Ex-S16 (ssDNA)
DNA: B1 DNA with G16T, C37T
B42: Ex-S33 (ssDNA)
DNA: B1 DNA with T33C, C37T

Residue numbers refer to the chain shown, from its start.

The target of one data set is T1, HMW-uPA (high molecular weight urokinase), biotinylated for FLAA (human, UniProt P00749;P00749 21-177;179-431). The experiment in a line: FLAA (OliGreen); BPs-T: 50 mM Bis-Tris/HCl pH 6.5, 110 mM NaCl, 5 mM MgCl2, 1 mM CaCl2, 1 mM KCl (printed KCl2), 0.05% Tween 20, 23 °C.
On to B1, for which the binding result is “binds”.

Turning to B2, the binding result is listed as “binds”.

Consider B3, for which the binding result is listed as “binds”.

Another data set addresses T1, HMW-uPA (high molecular weight …). The description is as above. This is another data set of the same source.
On to B4, for which the binding signal is 36 % signal reduction vs uPAapt-02-FR.

Regarding B5, the binding signal is 27 % signal reduction vs uPAapt-02-FR.

Regarding B6, the binding signal is 3 % signal reduction vs uPAapt-02-FR.

Regarding B7, the binding signal is 17 % signal reduction vs uPAapt-02-FR.

Turning to B8, the binding signal was 89 % signal reduction vs uPAapt-02-FR.

As for B9, the binding signal is 3 % signal reduction vs uPAapt-02-FR.

In the case of B10, the binding signal is 16 % signal reduction vs uPAapt-02-FR.

As for B11, the binding signal was 47 % signal reduction vs uPAapt-02-FR.

For the molecule B12, the binding signal was 98 % signal reduction vs uPAapt-02-FR.

B13: the binding signal was 0 % signal reduction vs uPAapt-02-FR.

Turning to B14, the binding signal is 13 % signal reduction vs uPAapt-02-FR.

With B15, the binding signal is 89 % signal reduction vs uPAapt-02-FR.

B16: the binding signal was 97 % signal reduction vs uPAapt-02-FR.

With B17, the binding signal is 99 % signal reduction vs uPAapt-02-FR.

Turning to B18, the binding signal is 34 % signal reduction vs uPAapt-02-FR.

For the molecule B19, the binding signal was 91 % signal reduction vs uPAapt-02-FR.

B20: the binding signal is 0 % signal reduction vs uPAapt-02-FR.

Regarding B21, the binding signal was 85 % signal reduction vs uPAapt-02-FR.

Turning to B22, the binding signal is 78 % signal reduction vs uPAapt-02-FR.

Consider B23, for which the binding signal is 91 % signal reduction vs uPAapt-02-FR.

For B24, the binding signal was 65 % signal reduction vs uPAapt-02-FR.

With B25, the binding signal is 99 % signal reduction vs uPAapt-02-FR.

As for B26, the binding signal was 100 % signal reduction vs uPAapt-02-FR.

For B27, the binding signal was 65 % signal reduction vs uPAapt-02-FR.

With B28, the binding signal was 100 % signal reduction vs uPAapt-02-FR.

With B29, the binding signal is 11 % signal reduction vs uPAapt-02-FR.

For B30, the binding signal was 56 % signal reduction vs uPAapt-02-FR.

Turning to B31, the binding signal was 95 % signal reduction vs uPAapt-02-FR.

As for B32, the binding signal is 63 % signal reduction vs uPAapt-02-FR.

Turning to B33, the binding signal is 94 % signal reduction vs uPAapt-02-FR.

Regarding B34, the binding signal is 89 % signal reduction vs uPAapt-02-FR.

Turning to B35, the binding signal is 53 % signal reduction vs uPAapt-02-FR.

As for B36, the binding signal was 94 % signal reduction vs uPAapt-02-FR.

On to B37, for which the binding signal is 92 % signal reduction vs uPAapt-02-FR.

As to B38, the binding signal was 18 % signal reduction vs uPAapt-02-FR.

B39: the binding signal was 50 % signal reduction vs uPAapt-02-FR.

As to B40, the binding signal was 95 % signal reduction vs uPAapt-02-FR.

B41: the binding signal is 72 % signal reduction vs uPAapt-02-FR.

Turning to B42, the binding signal was 82 % signal reduction vs uPAapt-02-FR.
